Measurements reported in paper PMC3093752.

Biological target: T1, DNA polymerase kappa catalytic core (Polκ19-526) (human, UniProt Q9UBT6 19-526)
T1 sequence: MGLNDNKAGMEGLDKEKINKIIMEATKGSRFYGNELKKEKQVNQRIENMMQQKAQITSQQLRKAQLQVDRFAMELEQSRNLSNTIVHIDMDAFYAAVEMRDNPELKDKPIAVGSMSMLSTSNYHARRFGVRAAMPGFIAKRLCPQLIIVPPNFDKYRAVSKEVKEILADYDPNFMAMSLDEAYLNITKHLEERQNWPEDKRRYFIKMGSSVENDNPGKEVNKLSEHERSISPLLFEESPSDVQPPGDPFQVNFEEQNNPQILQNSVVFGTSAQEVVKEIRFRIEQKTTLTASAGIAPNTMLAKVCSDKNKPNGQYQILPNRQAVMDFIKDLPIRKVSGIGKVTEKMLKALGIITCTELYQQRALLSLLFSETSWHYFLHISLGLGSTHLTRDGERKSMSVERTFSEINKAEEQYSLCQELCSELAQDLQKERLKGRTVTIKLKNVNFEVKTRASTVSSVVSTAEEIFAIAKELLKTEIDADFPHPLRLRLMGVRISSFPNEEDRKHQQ
Experiment: X-ray crystallography

B1: 13-nt/18-nt primer/template with cis-syn T-T dimer (dsDNA)
DNA 1: TTCCTTGGTCCTTCCCCC
DNA 2: GGGGGAAGGACCA
modifications: cis-syn cyclobutane thymine dimer in template (T5-T6, position from pairing with primer); 3'-terminal dideoxyadenosine on primer
binding result: binds
